# Source: patent US20250129143A1 (TOKYO METROPOLITAN INSTITUTE OF MEDICAL SCIENCE, published 2025)
# B1: anti-ubiquitin monobody clone A, Monobody-Nus tag-His6 recombinant protein (designed binder)
# chain: LEVVEASPTSIQISWDAYPYYIIGETVRYYRITYGETGGNSPVQEFTVPGSKSTATISGLKPGVDYTITVYAVTYYGNAFWGWPPISINYRTHHHHHH
# notes: Fibronectin type III monobody fused from the N-terminus to Nus tag and His6, made in E. coli; also called Ub monobody; not shown: Nus tag for solubilization
# B2: anti-ubiquitin monobody clone E, Monobody-Nus tag-His6 recombinant protein (designed binder)
# chain: LEVVEASPTSIQISWDANIYSVGQGEYVRYYRITYGETGGNSPVQEFTVPGSKSTATISGLKPGVDYTITVYAVTEYSYMYWGWPPISINYRTHHHHHH
# notes: Monobody, Nus tag and His6 fused from the N-terminus; also called Ub monobody; not shown: Nus tag for solubilization
# B3: Halo tag-fused anti-ubiquitin monobody (His6-Halo tag-TEV recognition sequence-GGGS-monobody, clone C) (designed binder)
# chain: HHHHHHGGGSLEVVEASPTSIQISWDAASFGFTHMDKVRYYRITYGETGGNSPVQEFTVPGSKSTATISGLKPGVDYTITVYAVTWYAYSYWGWPPISINYRT
# notes: Immobilized on Magne HaloTag Beads; also called Ub monobody; Halo tag-fused monobody; not shown: Halo tag
# Assays:
# [1] = biological target: T1, biotinylated ubiquitin (human-derived ubiquitin with C-terminal Cys residue and 6xHis tag, biotin on the Cys) (human, UniProt P0CG48 1-76, biotin tag (EZ-Link Maleimide-PEG11-Biotin) on the added C-terminal Cys residue); assay: BLI; biotinylated ubiquitin on streptavidin sensor, Monobody-Nus-His6 as analyte
# T1 construct: mature; Construct pET21a-hUb-Cys-His6; also called hUb-Cys-His6; biotin-labeled ubiquitin monomer
# M1 = biological target: T2, M1 (human); assay: immunoprecipitation from HCT-116 cell extract; quantitative mass spectrometry; pie chart [panel B]
# T2 construct: quantified through the peptide GGM[Oxid]QIFVK; also called M1 chain; M1-linked ubiquitin chain
# Source text: (§1) FIG. 7 is a view showing the results of quantitative mass spectrometry analysis of immunoprecipitates. […] The immunoprecipitates subjected to FIG. 5C were electrophoresed, and high molecular weight regions (62 kDa or more) were subjected to quantitative mass spectrometry analysis. A stable isotope-labeled ubiquitin-derived peptide (name: EST) as an internal standard and 8 types of ubiquitin chain-derived peptides (names: K6, K11, K27, K29, K33, K48, K63, and M1) were used, and the quantification values (fmol) were described. Since the EST peptide sequence overlaps with the K63 chain peptide sequence, the total ubiquitin value was calculated by adding the value of the K63 chain-derived peptide to the quantitative value of the EST peptide. The total amount of ubiquitin contained in the ubiquitin monobody immunoprecipitates was confirmed to be higher than that of FK2 or P4D1. […] The value of the control is subtracted from the value of each antibody, a total value of the 8 types of ubiquitin chain-derived peptides is set at 100%, and the percentage of each ubiquitin chain is shown as a pie chart.
# (§2) The above-described immunoprecipitate was electrophoresed on 4%-12% NuPAGE Bis-Tris gels (Thermo Fisher Scientific) in MES buffer (Thermo Fisher Scientific) for about 2 cm, and was then stained with CBB (Bio-Safe Commassie, Bio-Rad). After the gel was washed with Milli-Q water, a gel of 62 kDa or more was cut out using a molecular weight marker as an indicator, and the gel was cut into 1 mm squares. The gel pieces were collected in an Eppendorf tube and were washed with 50 mM ammonium bicarbonate and 30% acetonitrile (ACN) for 2 hours, and then with 50 mM ammonium bicarbonate and 50% ACN for 1 hour, and were dehydrated in 100% ACN for 15 minutes. Subsequently, a trypsin solution (20 ng/ml Trypsin Gold, Promega, 50 mM ammonium bicarbonate, and 5% ACN) was added to the resultant, which was then digested at 37° C. overnight.
# K6 = biological target: T3, K6 (human); assay: as above
# T3 construct: quantified through the peptide M[Oxid]QIFVK[di-GlyGly]TLTGK; also called K6 chain; K6-linked ubiquitin chain
# Source text: as §1, §2
# K11 = biological target: T4, K11 (human); assay: as above
# T4 construct: also called K11 chain; K11-linked ubiquitin chain
# Source text: as §1, §2
# K27 = biological target: T5, K27 (human); assay: as above
# T5 construct: also called K27 chain; K27-linked ubiquitin chain
# Source text: as §1, §2
# K29 = biological target: T6, K29 (human); assay: as above
# T6 construct: quantified through the peptide AK[di-GlyGly]IQDK; also called K29 chain; K29-linked ubiquitin chain
# Source text: as §1, §2
# K33 = biological target: T7, K33 (human); assay: as above
# T7 construct: also called K33 chain; K33-linked ubiquitin chain
# Source text: as §1, §2
# K48 = biological target: T8, K48 (human); assay: as above
# T8 construct: quantified through the peptide LIFAGK[di-GlyGly]QLEDGR; also called K48 chain; K48-linked ubiquitin chain
# Source text: as §1, §2
# K63 = biological target: T9, K63 (human); assay: as above
# T9 construct: also called K63 chain; K63-linked ubiquitin chain
# Source text: as §1, §2
Binder,Kd [1] [nM],percentage of this chain among the 8 ubiquitin chain-derived peptides in the immunoprecipitate (control subtracted) (M1) [%],percentage of this chain among the 8 ubiquitin chain-derived peptides in the immunoprecipitate (control subtracted) (K6) [%],percentage of this chain among the 8 ubiquitin chain-derived peptides in the immunoprecipitate (control subtracted) (K11) [%],percentage of this chain among the 8 ubiquitin chain-derived peptides in the immunoprecipitate (control subtracted) (K27) [%],percentage of this chain among the 8 ubiquitin chain-derived peptides in the immunoprecipitate (control subtracted) (K29) [%],percentage of this chain among the 8 ubiquitin chain-derived peptides in the immunoprecipitate (control subtracted) (K33) [%],percentage of this chain among the 8 ubiquitin chain-derived peptides in the immunoprecipitate (control subtracted) (K48) [%],percentage of this chain among the 8 ubiquitin chain-derived peptides in the immunoprecipitate (control subtracted) (K63) [%]
B1,1.1,,,,,,,,
B2,1.2,,,,,,,,
B3,,0,4,6,0,10,0,61,19
